Laboratory results published in the supplement of paper PMC9732359.
± gives the uncertainty stated by the source.

Assay: protein stability index of a GFP-peptide fusion (yeast GPS) (PSI 1-4); higher = more stable; sorted into four equal gates, so the index is relative within each strain
Outline: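 The protein stability index combines read frequencies across sorting gates, each weighted by its gate number and then summed. To obtain those frequencies, a pooled yeast library of GFP fusions to tiled 17-residue yeast protein peptides, on a plasmid also expressing Cherry, was grown to mid-log phase in leucine-free medium. The cells were sorted into four equal gates by GFP/Cherry ratio before plasmid amplification by PCR and Illumina sequencing.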

Sequence | protein stability index (doa10∆) | protein stability index (pdr5∆) | protein stability index (san1∆) | protein stability index (ubr1∆)
IDHINEESWEKVVEFAI [SCL1] | 2.78 ± 0.07 | 3.08 ± 0.082 | 3.03 ± 0.068 | 2.91 ± 0.06
IESALKSKLDQDSTSEN [RPN2] | 2.76 ± 0.072 | 3.04 ± 0.073 | 2.87 ± 0.076 | 2.95 ± 0.1
NNDGSYGLFLKYHKEQF [SRB8] | 2.61 ± 0.086 | 2.34 ± 0.07 | 2.12 ± 0.12 | 1.82 ± 0.069
LLVPASDLINKDLVKNN [FAS1] | 1.76 ± 0.086 | 2.95 ± 0.097 | 3.11 ± 0.12 | 2.83 ± 0.11
QNSKEKNGLGLNFSTTA [MED2] | 2.9 ± 0.11 | 3.13 ± 0.064 | 2.94 ± 0.056 | 2.99 ± 0.089
FDDRGDVKVIMATNKIE [RPT2] | 3.12 ± 0.12 | 3.18 ± 0.15 | 3.11 ± 0.083 | 3.27 ± 0.12
MARYGATSTNPAKSASA [RPL17A] | 2.59 ± 0.056 | 2.91 ± 0.064 | 2.31 ± 0.09 | 2.9 ± 0.048
PPSLKIIDGPKALILAP [PRP28] | 1.62 ± 0.055 | 1.77 ± 0.07 | 1.51 ± 0.12 | 1.63 ± 0.039
PIDIFQIIRRVKEMEPK [SIR3] | 3.1 ± 0.13 | 3.22 ± 0.18 | – | 2.94 ± 0.29
GRGTLFVRGDSKIFRFQ [RPL24A] | 1.58 ± 0.05 | 1.74 ± 0.076 | 1.95 ± 0.087 | 2.21 ± 0.065
TWEECVFFDDDPLYDIT [REC8] | 3 ± 0.13 | 3.24 ± 0.14 | 2.95 ± 0.06 | 3.08 ± 0.059
ISIDSWPTTHKYPLGHF [DIS3] | 2.38 ± 0.077 | 2.74 ± 0.11 | 3.04 ± 0.082 | 2.81 ± 0.072
KYLYLRAVGGEVGASAA [RPL12A] | 1.66 ± 0.18 | 1.99 ± 0.13 | 1.64 ± 0.13 | 2.11 ± 0.1
LCQINKCSTRGLSTDHT [YML103C/NUP188] | – | 2.47 ± 0.23 | – | 3.13 ± 0.18
WTVLFRKHHKKGITEEV [RPL24A] | 3.08 ± 0.12 | 2.1 ± 0.13 | 1.82 ± 0.15 | 2.64 ± 0.079
DDLPYYVNALADVLYKT [QCR2] | 2.78 ± 0.061 | 2.86 ± 0.052 | 2.63 ± 0.045 | 2.63 ± 0.042
DNDGFSFLMRQFTRFFL [ECM29] | 1.63 ± 0.047 | 2.19 ± 0.059 | 1.87 ± 0.075 | 2.43 ± 0.047
FSDKVNALWILVDLVSH [ITC1] | 1.4 ± 0.079 | 1.23 ± 0.051 | 1.35 ± 0.094 | 1.27 ± 0.045
ELLEYSDDIAENDNLDN [YCG1] | 3.06 ± 0.058 | 3.27 ± 0.068 | 3.21 ± 0.049 | 3.25 ± 0.054
SGNDSMAGKVLILTSHN [BRR2] | 2.13 ± 0.058 | 2.28 ± 0.072 | 1.63 ± 0.091 | 2.36 ± 0.089
LKERAKNISSQLDSKLM [YGR119C/NUP57] | 1.2 ± 0.2 | 1.46 ± 0.22 | 1.56 ± 0.26 | 1.28 ± 0.13
LNNTHVISSGPLAAGNF [RPC53] | 2.74 ± 0.086 | 3 ± 0.1 | 2.69 ± 0.074 | 2.49 ± 0.049
YTKPYPNFEASFVHGVV [SMC2] | 2.53 ± 0.15 | 2.32 ± 0.13 | 2.47 ± 0.26 | 2.33 ± 0.14
SKLSKNISFYKLHVNWN [SIN4] | 2.04 ± 0.076 | 1.79 ± 0.071 | 2.02 ± 0.11 | 2.04 ± 0.06
VNECIAQSHQRFNAKVS [CDC53] | 2.15 ± 0.039 | 2.6 ± 0.043 | 2.64 ± 0.054 | 2.3 ± 0.027

Sequence | protein stability index (doa10∆) | protein stability index (pdr5∆) | protein stability index (san1∆) | protein stability index (ubr1∆)
PTHIWNAKRSHMMKRWG [POP1] | 2.35 ± 0.075 | 2.24 ± 0.068 | 1.98 ± 0.12 | 2.26 ± 0.067
HKSLIRSISWAPSIGRW [YGL100W/SEH1] | 2.81 ± 0.12 | 3.1 ± 0.11 | 2.21 ± 0.22 | 3.1 ± 0.091
PSIPLVIIRRLKTRDWI [POP1] | 2.72 ± 0.1 | 1.69 ± 0.073 | 2.86 ± 0.12 | 2.53 ± 0.081
SKMLDAASSQVSIVKLD [SNF12] | 2.89 ± 0.086 | 2.89 ± 0.11 | 3.03 ± 0.096 | 2.95 ± 0.091
MAFEASAAAAGNRNSSS [BRR2] | 3.12 ± 0.11 | 3.1 ± 0.11 | 2.35 ± 0.12 | 3.14 ± 0.11
KIAGIEGHLAEIRAKEY [SRB2] | 3.36 ± 0.12 | 3.41 ± 0.097 | 3.4 ± 0.071 | 3.31 ± 0.058
ETEAEEDHMLKKIENTM [RPO21] | – | 3.37 ± 0.18 | – | 3.46 ± 0.15
PDVKSLVQLSTMETKTL [SIR4] | 2.92 ± 0.071 | 2.83 ± 0.073 | 2.81 ± 0.052 | 2.98 ± 0.063
IDNLKDTLKENATEVQK [ITC1] | 2.66 ± 0.05 | 2.87 ± 0.068 | 2.92 ± 0.05 | 2.88 ± 0.05
LETLEHNGAPHHAIEEA [RPO21] | 3.34 ± 0.12 | 3.01 ± 0.1 | 2.94 ± 0.09 | 2.95 ± 0.19
SHAVEFFMSERSSRLHI [YML103C/NUP188] | 2.5 ± 0.067 | 2.73 ± 0.079 | 2.75 ± 0.087 | 2.4 ± 0.049
PMHSIMPNSSLQPFYSQ [DSN1] | 2.12 ± 0.072 | 2.65 ± 0.061 | 2.37 ± 0.083 | 2.49 ± 0.048
HSRKMNLTRGINLRKVA [RPT6] | 1.26 ± 0.075 | 1.36 ± 0.05 | 1.3 ± 0.11 | 1.2 ± 0.043
FDSTAFNATVDETKGFD [MED2] | 3.25 ± 0.06 | 3.28 ± 0.063 | 3.15 ± 0.063 | 3.21 ± 0.046
DPSMDPELAMALRLSME [RPN10] | 2.98 ± 0.062 | 3.18 ± 0.05 | 3.28 ± 0.068 | 2.96 ± 0.054
QKVNAVDSTFQKVSENF [SMC3] | 3.29 ± 0.091 | 3.28 ± 0.079 | 3.44 ± 0.06 | 3.21 ± 0.04
SLQEDVSFDFNGVPGQA [MED8] | 2.41 ± 0.06 | 2.97 ± 0.057 | 2.64 ± 0.086 | 3 ± 0.053
VQCHGSFATATCVTCHW [SIR2] | 2.28 ± 0.047 | 2.55 ± 0.046 | 2.26 ± 0.045 | 2.51 ± 0.031
ISVGLYDTTPLLDTNSL [SKI6] | 2.57 ± 0.074 | 2.88 ± 0.13 | 2.48 ± 0.099 | 2.51 ± 0.14
LDTYLPEDLNSLYIYYL [SIR2] | 2.8 ± 0.068 | 2.45 ± 0.054 | 2.54 ± 0.053 | 2.63 ± 0.063
DPPKGILLYGPPGTGKT [RPT1] | 2.94 ± 0.28 | 2.71 ± 0.28 | – | 3.23 ± 0.17
QVPDSLDDQIFVCEKSI [RPN6] | 3.01 ± 0.2 | 3.19 ± 0.1 | 2.95 ± 0.084 | 2.92 ± 0.13
GSAADTQAIADIVQYHL [PRE3] | – | 3.26 ± 0.19 | 2.88 ± 0.17 | 2.99 ± 0.13
ETQVEVEKNEIGKMYDE [NNF1] | 3.05 ± 0.19 | 3.21 ± 0.11 | 2.98 ± 0.17 | 3.37 ± 0.13
HIVQDCTLTADGAYALS [ASC1] | 2.37 ± 0.057 | 2.69 ± 0.062 | 2.52 ± 0.12 | 2.44 ± 0.064
